Source: US20060210984A1
Each block holds one substance with its values, some of them ahead of it.

How the values were obtained:
IFN-γ (human) [1] = target: IFN-γ (human) (UniProt P01579); test: sandwich microarray in flow cell, chemiluminescence, cytokine 1 ng/ml; AVG of Chips 1-5
IFN-γ (human) [2] = target: IFN-γ (human) (UniProt P01579); test: sandwich microarray in flow cell, chemiluminescence, cytokine 1 ng/ml; Chip 1
IFN-γ (human) [3] = target: IFN-γ (human) (UniProt P01579); test: sandwich microarray in flow cell, chemiluminescence, cytokine 1 ng/ml; Chip 2
IFN-γ (human) [4] = target: IFN-γ (human) (UniProt P01579); test: sandwich microarray in flow cell, chemiluminescence, cytokine 1 ng/ml, divided by chip-specific PNA calibration factor; Chip 1
IFN-γ (human) [5] = target: IFN-γ (human) (UniProt P01579); test: sandwich microarray in flow cell, chemiluminescence, cytokine 1 ng/ml, divided by chip-specific PNA calibration factor; Chip 4
IFN-γ (human) [6] = target: IFN-γ (human) (UniProt P01579); test: sandwich microarray in flow cell, chemiluminescence, cytokine 1 ng/ml; Chip 4
IFN-γ (human) [7] = target: IFN-γ (human) (UniProt P01579); test: sandwich microarray in flow cell, chemiluminescence, cytokine 1 ng/ml; Chip 3
IFN-γ (human) [8] = target: IFN-γ (human) (UniProt P01579); test: sandwich microarray in flow cell, chemiluminescence, cytokine 1 ng/ml; Chip 5
IFN-γ (human) [9] = target: IFN-γ (human) (UniProt P01579); test: sandwich microarray in flow cell, chemiluminescence, cytokine 1 ng/ml, divided by chip-specific PNA calibration factor; Chip 3
IFN-γ (human) [10] = target: IFN-γ (human) (UniProt P01579); test: sandwich microarray in flow cell, chemiluminescence, cytokine 1 ng/ml, divided by chip-specific PNA calibration factor; AVG of Chips 1-5
IFN-γ (human) [11] = target: IFN-γ (human) (UniProt P01579); test: sandwich microarray in flow cell, chemiluminescence, cytokine 1 ng/ml, divided by chip-specific PNA calibration factor; Chip 2
IFN-γ (human) [12] = target: IFN-γ (human) (UniProt P01579); test: sandwich microarray in flow cell, chemiluminescence, cytokine 1 ng/ml, divided by chip-specific PNA calibration factor; Chip 5
IL-1a (human) [13] = target: IL-1a (human) (UniProt P01583); test: sandwich microarray in flow cell, chemiluminescence, cytokine 1 ng/ml; AVG of Chips 1-5
IL-1a (human) [14] = target: IL-1a (human) (UniProt P01583); test: sandwich microarray in flow cell, chemiluminescence, cytokine 1 ng/ml; Chip 1
IL-1a (human) [15] = target: IL-1a (human) (UniProt P01583); test: sandwich microarray in flow cell, chemiluminescence, cytokine 1 ng/ml; Chip 2
IL-1a (human) [16] = target: IL-1a (human) (UniProt P01583); test: sandwich microarray in flow cell, chemiluminescence, cytokine 1 ng/ml, divided by chip-specific PNA calibration factor; Chip 1
IL-1a (human) [17] = target: IL-1a (human) (UniProt P01583); test: sandwich microarray in flow cell, chemiluminescence, cytokine 1 ng/ml, divided by chip-specific PNA calibration factor; Chip 4
IL-1a (human) [18] = target: IL-1a (human) (UniProt P01583); test: sandwich microarray in flow cell, chemiluminescence, cytokine 1 ng/ml; Chip 4
IL-1a (human) [19] = target: IL-1a (human) (UniProt P01583); test: sandwich microarray in flow cell, chemiluminescence, cytokine 1 ng/ml; Chip 3
IL-1a (human) [20] = target: IL-1a (human) (UniProt P01583); test: sandwich microarray in flow cell, chemiluminescence, cytokine 1 ng/ml; Chip 5
IL-1a (human) [21] = target: IL-1a (human) (UniProt P01583); test: sandwich microarray in flow cell, chemiluminescence, cytokine 1 ng/ml, divided by chip-specific PNA calibration factor; Chip 3
IL-1a (human) [22] = target: IL-1a (human) (UniProt P01583); test: sandwich microarray in flow cell, chemiluminescence, cytokine 1 ng/ml, divided by chip-specific PNA calibration factor; AVG of Chips 1-5
IL-1a (human) [23] = target: IL-1a (human) (UniProt P01583); test: sandwich microarray in flow cell, chemiluminescence, cytokine 1 ng/ml, divided by chip-specific PNA calibration factor; Chip 2
IL-1a (human) [24] = target: IL-1a (human) (UniProt P01583); test: sandwich microarray in flow cell, chemiluminescence, cytokine 1 ng/ml, divided by chip-specific PNA calibration factor; Chip 5
IL-1b (human) [25] = target: IL-1b (human) (UniProt P01584); test: sandwich microarray in flow cell, chemiluminescence, cytokine 1 ng/ml; AVG of Chips 1-5
IL-1b (human) [26] = target: IL-1b (human) (UniProt P01584); test: sandwich microarray in flow cell, chemiluminescence, cytokine 1 ng/ml; Chip 1
IL-1b (human) [27] = target: IL-1b (human) (UniProt P01584); test: sandwich microarray in flow cell, chemiluminescence, cytokine 1 ng/ml; Chip 2
IL-1b (human) [28] = target: IL-1b (human) (UniProt P01584); test: sandwich microarray in flow cell, chemiluminescence, cytokine 1 ng/ml, divided by chip-specific PNA calibration factor; Chip 1
IL-1b (human) [29] = target: IL-1b (human) (UniProt P01584); test: sandwich microarray in flow cell, chemiluminescence, cytokine 1 ng/ml, divided by chip-specific PNA calibration factor; Chip 4
IL-1b (human) [30] = target: IL-1b (human) (UniProt P01584); test: sandwich microarray in flow cell, chemiluminescence, cytokine 1 ng/ml; Chip 4
IL-1b (human) [31] = target: IL-1b (human) (UniProt P01584); test: sandwich microarray in flow cell, chemiluminescence, cytokine 1 ng/ml; Chip 3
IL-1b (human) [32] = target: IL-1b (human) (UniProt P01584); test: sandwich microarray in flow cell, chemiluminescence, cytokine 1 ng/ml; Chip 5
IL-1b (human) [33] = target: IL-1b (human) (UniProt P01584); test: sandwich microarray in flow cell, chemiluminescence, cytokine 1 ng/ml, divided by chip-specific PNA calibration factor; Chip 3
IL-1b (human) [34] = target: IL-1b (human) (UniProt P01584); test: sandwich microarray in flow cell, chemiluminescence, cytokine 1 ng/ml, divided by chip-specific PNA calibration factor; AVG of Chips 1-5
IL-1b (human) [35] = target: IL-1b (human) (UniProt P01584); test: sandwich microarray in flow cell, chemiluminescence, cytokine 1 ng/ml, divided by chip-specific PNA calibration factor; Chip 2
IL-1b (human) [36] = target: IL-1b (human) (UniProt P01584); test: sandwich microarray in flow cell, chemiluminescence, cytokine 1 ng/ml, divided by chip-specific PNA calibration factor; Chip 5

UniProt P01579, sequence (P01579 24-166 limits assumed): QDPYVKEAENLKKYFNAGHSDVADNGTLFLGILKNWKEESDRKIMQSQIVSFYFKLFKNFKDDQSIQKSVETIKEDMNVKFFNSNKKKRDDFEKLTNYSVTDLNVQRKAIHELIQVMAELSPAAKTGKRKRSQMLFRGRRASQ
UniProt P01583, sequence (P01583 113-271 limits assumed): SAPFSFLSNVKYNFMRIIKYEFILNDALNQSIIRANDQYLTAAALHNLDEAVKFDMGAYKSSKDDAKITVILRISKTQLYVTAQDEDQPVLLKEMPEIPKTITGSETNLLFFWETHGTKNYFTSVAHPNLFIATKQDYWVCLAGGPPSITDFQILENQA
UniProt P01584, sequence (P01584 117-269 limits assumed): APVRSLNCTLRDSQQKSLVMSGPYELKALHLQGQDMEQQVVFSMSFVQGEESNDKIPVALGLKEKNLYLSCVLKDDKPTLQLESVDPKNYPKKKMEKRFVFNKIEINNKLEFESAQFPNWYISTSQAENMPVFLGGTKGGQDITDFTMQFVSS

chemiluminescent spot intensity (Un-Calibrated Data) (IFN-γ (human) [1]): 2.4
chemiluminescent spot intensity (Un-Calibrated Data) (IFN-γ (human) [2]): 0
chemiluminescent spot intensity (Un-Calibrated Data) (IFN-γ (human) [3]): 0
chemiluminescent spot intensity (Calibrated Data) (IFN-γ (human) [4]): 0
chemiluminescent spot intensity (Calibrated Data) (IFN-γ (human) [5]): 4.39
chemiluminescent spot intensity (Un-Calibrated Data) (IFN-γ (human) [6]): 2
chemiluminescent spot intensity (Un-Calibrated Data) (IFN-γ (human) [7]): 10
chemiluminescent spot intensity (Un-Calibrated Data) (IFN-γ (human) [8]): 0
chemiluminescent spot intensity (Calibrated Data) (IFN-γ (human) [9]): 10
chemiluminescent spot intensity (Calibrated Data) (IFN-γ (human) [10]): 2.88
chemiluminescent spot intensity (Calibrated Data) (IFN-γ (human) [11]): 0
chemiluminescent spot intensity (Calibrated Data) (IFN-γ (human) [12]): 0
Substance: MAb IFN-g (monoclonal capture antibody of the anti-human IFN-γ OptEIA matched pair, BD Biosciences-Pharmingen)

chemiluminescent spot intensity (Un-Calibrated Data) (IL-1a (human) [13]): 168
chemiluminescent spot intensity (Un-Calibrated Data) (IL-1a (human) [14]): 175
chemiluminescent spot intensity (Un-Calibrated Data) (IL-1a (human) [15]): 95
chemiluminescent spot intensity (Calibrated Data) (IL-1a (human) [16]): 293
chemiluminescent spot intensity (Calibrated Data) (IL-1a (human) [17]): 301
chemiluminescent spot intensity (Un-Calibrated Data) (IL-1a (human) [18]): 137
chemiluminescent spot intensity (Un-Calibrated Data) (IL-1a (human) [19]): 312
chemiluminescent spot intensity (Un-Calibrated Data) (IL-1a (human) [20]): 121
chemiluminescent spot intensity (Calibrated Data) (IL-1a (human) [21]): 312
chemiluminescent spot intensity (Calibrated Data) (IL-1a (human) [22]): 321
chemiluminescent spot intensity (Calibrated Data) (IL-1a (human) [23]): 325
chemiluminescent spot intensity (Calibrated Data) (IL-1a (human) [24]): 373
Substance: MAb IL-1a (monoclonal capture antibody of the anti-human IL-1a OptEIA matched pair, BD Biosciences-Pharmingen)

chemiluminescent spot intensity (Un-Calibrated Data) (IL-1b (human) [25]): 257
chemiluminescent spot intensity (Un-Calibrated Data) (IL-1b (human) [26]): 297
chemiluminescent spot intensity (Un-Calibrated Data) (IL-1b (human) [27]): 150
chemiluminescent spot intensity (Calibrated Data) (IL-1b (human) [28]): 498
chemiluminescent spot intensity (Calibrated Data) (IL-1b (human) [29]): 485
chemiluminescent spot intensity (Un-Calibrated Data) (IL-1b (human) [30]): 221
chemiluminescent spot intensity (Un-Calibrated Data) (IL-1b (human) [31]): 486
chemiluminescent spot intensity (Un-Calibrated Data) (IL-1b (human) [32]): 131
chemiluminescent spot intensity (Calibrated Data) (IL-1b (human) [33]): 486
chemiluminescent spot intensity (Calibrated Data) (IL-1b (human) [34]): 477
chemiluminescent spot intensity (Calibrated Data) (IL-1b (human) [35]): 513
chemiluminescent spot intensity (Calibrated Data) (IL-1b (human) [36]): 404
Substance: MAb IL-1b (monoclonal capture antibody of the anti-human IL-1b OptEIA matched pair, BD Biosciences-Pharmingen)
